Assay results as given in the supplement of paper PMC12783771.
± gives the standard deviation of the averaged measurements.

B1: library; numbered along this chain (parent)
chain: MNIQIGELAKRTACPVVTIRFYEQEGLLPPPGRSRGNFRLYGEEHVERLQFIRHCRSLDMPLSDVRTLLSYRKRPDQDCGEVNMLLDEHIRQVESRIGALLELKHHLVELREACSGARPAQSCGILQGLSDCVCDTRGTTAHPSD

Assays:
[1] = variants of: B1; test: sfGFP reporter fluorescence (15 h) (µM FITC); higher = higher leak; details: library round: Round 0; ligand: none
Method: (§1)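 Cell-free (BL21 Star DE3 extract, PANOx-SP) biosensing: 1 µL Echo-assembled reactions with linear PbrR variant templates (5 nM) and pPbrR-sfGFP reporter, with 1 µM Pb (lead chloride), 30 µM Zn (zinc acetate) or no ligand; endpoint sfGFP fluorescence after 15 h at 30 °C, calibrated as µM FITC. Round 0 library (alanine scan, site saturation, combinatorial) of PbrR from Cupriavidus metallidurans; 2 biological replicates.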

[2] = variants of: B1; test: sfGFP reporter fluorescence (15 h) (µM FITC); higher = stronger transcriptional activation; details: library round: Round 0
Method: as §1

Row | Variant | sfGFP reporter fluorescence [1] | sfGFP reporter fluorescence ([2]; ligand: 1 µM Pb) | sfGFP reporter fluorescence ([2]; ligand: 30 µM Zn)
1 | F38A | 0.064 ± 0.0039 | 0.0634 ± 0.0026 | 0.379 ± 0.015
2 | N37A | 0.0634 ± 0.001 | 0.0729 ± 0.0042 | 0.481 ± 0.007
3 | L40A | 0.0608 ± 0.0031 | 0.0658 ± 0.0018 | 0.207 ± 0.0036
4 | E44A | 0.0612 ± 0.0015 | 0.0746 ± 0.0013 | 0.495 ± 0.044
5 | P31A | 0.05736 ± 0.00026 | 0.0607 ± 0.0044 | 0.485 ± 0.04
6 | C55I | 0.0583 ± 0.0026 | 0.0616 | 0.112 ± 0.0057
7 | C55K | 0.0608 ± 0.0015 | 0.061 ± 0.0018 | 0.0607 ± 0.00078
8 | C55H | 0.0585 ± 0.00078 | 0.06139 ± 0.00026 | 0.0574 ± 0.00078
9 | C55G | 0.0568 ± 0.0015 | 0.057 ± 0.00078 | 0.07 ± 0.0015
10 | C55D | 0.0608 ± 0.0021 | 0.061 ± 0.0018 | 0.0592 ± 0.00078
11 | C55A | 0.0647 ± 0.0013 | 0.126 ± 0.013 | 1.28 ± 0.066
12 | C55F | 0.0634 ± 0.001 | 0.0674 ± 0.001 | 0.0876
13 | C55E | 0.061 ± 0.0013 | 0.06029 ± 0.00026 | 0.0607 ± 0.0013
14 | L49A | 0.0619 ± 0.001 | 0.0614 ± 0.0013 | 0.0969 ± 0.011
15 | E43D | 0.05754 ± 0.00052 | 0.072 ± 0.012 | 0.744 ± 0.036
16 | E43V | 0.0605 ± 0.0015 | 0.0883 ± 0.014 | 1.17 ± 0.089
17 | E43A | 0.06304 ± 0.00052 | 0.0969 ± 0.0044 | 1.66 ± 0.077
18 | E43S | 0.06102 ± 0.00026 | 0.0889 ± 0.015 | 1.41 ± 0.17
19 | E43C | 0.06066 ± 0.00026 | 0.0887 ± 0.0042 | 0.481 ± 0.018
20 | E43R | 0.0643 ± 0.00078 | 0.111 ± 0.025 | 2.24 ± 0.12
21 | E43M | 0.0597 ± 0.0047 | 0.099 ± 0.0047 | 1.33 ± 0.083
22 | E43G | 0.0583 ± 0.0021 | 0.0883 ± 0.001 | 0.924 ± 0.066

Row | Variant | sfGFP reporter fluorescence [1] | sfGFP reporter fluorescence ([2]; ligand: 1 µM Pb) | sfGFP reporter fluorescence ([2]; ligand: 30 µM Zn)
23 | E43Y | 0.0599 ± 0.00078 | 0.0924 ± 0.017 | 1.2 ± 0.058
24 | E43N | 0.0577 ± 0.006 | 0.0828 ± 0.0036 | 1.21 ± 0.02
25 | E43T | 0.06341 ± 0.00052 | 0.104 ± 0.0054 | 1.5 ± 0.14
26 | E43W | 0.061 ± 0.0013 | 0.0995 ± 0.021 | 1.36 ± 0.2
27 | E43L | 0.05113 ± 0.00026 | 0.0713 ± 0.007 | 1.01 ± 0.038
28 | E43Q | 0.0614 ± 0.0018 | 0.076 ± 0.0029 | 1.16 ± 0.18
29 | E43F | 0.05846 ± 0.00026 | 0.0828 ± 0.015 | 0.99 ± 0.18
30 | E43I | 0.05186 ± 0.00026 | 0.0806 ± 0.0093 | 1.11 ± 0.078
31 | E43K | 0.0594 | 0.109 ± 0.02 | 2.36 ± 0.049
32 | E43P | 0.05736 ± 0.00026 | 0.0674 ± 0.0093 | 0.7191 ± 0.0047
33 | E43H | 0.0669 ± 0.00078 | 0.0891 ± 0.013 | 0.629 ± 0.0098
34 | S34A | 0.0645 ± 0.001 | 0.0654 ± 0.00078 | 0.328 ± 0.018
35 | I52A | 0.06341 ± 0.00052 | 0.0596 ± 0.0023 | 0.077 ± 0.0015
36 | G36M | 0.0612 | 0.0667 ± 0.0031 | 0.236 ± 0.028
37 | G36N | 0.064 ± 0.0018 | 0.09 ± 0.006 | 1.41 ± 0.29
38 | G36S | 0.0706 ± 0.00078 | 0.119 ± 0.021 | 2.69 ± 0.06
39 | G36T | 0.06469 ± 0.00026 | 0.08943 ± 0.00052 | 0.866 ± 0.074
40 | G36P | 0.05937 ± 0.00052 | 0.0583 ± 0.001 | 0.0627 ± 0.0036
41 | G36K | 0.06304 ± 0.00052 | 0.09218 ± 0.00026 | 1.18 ± 0.099
42 | G36W | 0.0579 ± 0.0057 | 0.0601 ± 0.0062 | 0.104 ± 0.0042
43 | G36H | 0.0627 ± 0.0015 | 0.0793 ± 0.0018 | 0.772 ± 0.059
44 | G36C | 0.0618 ± 0.0018 | 0.0865 ± 0.0015 | 0.8609 ± 0.0015

Row | Variant | sfGFP reporter fluorescence [1] | sfGFP reporter fluorescence ([2]; ligand: 1 µM Pb) | sfGFP reporter fluorescence ([2]; ligand: 30 µM Zn)
45 | G36V | 0.06011 ± 0.00052 | 0.0711 ± 0.00052 | 0.322 ± 0.011
46 | G36R | 0.0597 ± 0.0015 | 0.0656 ± 0.0026 | 0.247 ± 0.0088
47 | G36Q | 0.0592 ± 0.0029 | 0.0676 ± 0.0023 | 0.3562 ± 0.0026
48 | G36A | 0.0665 ± 0.00078 | 0.108 ± 0.0067 | 1.91 ± 0.2
49 | G36Y | 0.0605 ± 0.0026 | 0.0691 ± 0.0023 | 0.275 ± 0.031
50 | G36L | 0.0588 ± 0.00078 | 0.0621 ± 0.00078 | 0.114 ± 0.011
51 | G36F | 0.0594 ± 0.001 | 0.0638 ± 0.0015 | 0.145 ± 0.0029
52 | G36I | 0.05589 ± 0.00026 | 0.0579 ± 0.0015 | 0.117 ± 0.0044
53 | G36E | 0.05992 ± 0.00026 | 0.0618 ± 0.0018 | 0.115 ± 0.0098
54 | G36D | 0.0616 | 0.0623 ± 0.0021 | 0.0695 ± 0.0018
55 | V46A | 0.0619 ± 0.0031 | 0.0757 ± 0.0023 | 0.682 ± 0.097
56 | V46E | 0.0579 | 0.0806 ± 0.0015 | 0.724 ± 0.053
57 | V46R | 0.0594 ± 0.001 | 0.08704 ± 0.00026 | 0.75 ± 0.054
58 | V46C | 0.0531 ± 0.0026 | 0.0781 ± 0.0021 | 0.574 ± 0.01
59 | V46M | 0.0563 ± 0.0018 | 0.09 ± 0.0075 | 1 ± 0.1
60 | V46D | 0.0581 ± 0.0034 | 0.0612 ± 0.0015 | 0.0735 ± 0.0013
61 | V46N | 0.0535 ± 0.0021 | 0.0665 ± 0.0096 | 0.108 ± 0.0023
62 | V46W | 0.0583 ± 0.0021 | 0.0757 ± 0.0034 | 0.429 ± 0.0044
63 | V46H | 0.0557 ± 0.0015 | 0.0738 ± 0.00078 | 0.345 ± 0.039
64 | V46L | 0.0542 ± 0.0047 | 0.0847 ± 0.015 | 0.811 ± 0.057
65 | V46Y | 0.0588 ± 0.00078 | 0.0861 ± 0.0067 | 0.6826 ± 0.0049
66 | V46G | 0.05498 ± 0.00052 | 0.059 ± 0.0021 | 0.106 ± 0.013

Row | Variant | sfGFP reporter fluorescence [1] | sfGFP reporter fluorescence ([2]; ligand: 1 µM Pb) | sfGFP reporter fluorescence ([2]; ligand: 30 µM Zn)
67 | V46T | 0.057 ± 0.0013 | 0.07733 ± 0.00052 | 0.419 ± 0.0078
68 | V46F | 0.05626 ± 0.00026 | 0.0814 ± 0.0015 | 0.66 ± 0.074
69 | V46I | 0.0548 ± 0.006 | 0.0711 ± 0.0062 | 0.831 ± 0.17
70 | V46Q | 0.0544 ± 0.0039 | 0.0858 ± 0.001 | 0.755 ± 0.052
71 | V46P | 0.0537 ± 0.0023 | 0.0592 ± 0.0039 | 0.0641 ± 0.0042
72 | V46S | 0.055 ± 0.0021 | 0.0687 ± 0.00078 | 0.306 ± 0.059
73 | V46K | 0.0599 ± 0.00078 | 0.0922 ± 0.0023 | 0.908 ± 0.097
74 | H54A | 0.05626 ± 0.00026 | 0.0552 ± 0.0029 | 0.07074 ± 0.00052
75 | R48A | 0.0546 ± 0.0015 | 0.0541 ± 0.0023 | 0.3984 ± 0.0031
76 | E47A | 0.0612 | 0.0779 ± 0.0049 | 0.791 ± 0.039
77 | R35A | 0.0658 ± 0.0029 | 0.08833 ± 0.00052 | 2.06 ± 0.079
78 | P30Q | 0.06395 ± 0.00026 | 0.0925 ± 0.0039 | 1.19 ± 0.066
79 | P30N | 0.0605 ± 0.0031 | 0.0753 ± 0.0049 | 0.628 ± 0.07
80 | P30H | 0.0618 ± 0.00078 | 0.0808 ± 0.0023 | 0.659 ± 0.038
81 | P30S | 0.06249 ± 0.00026 | 0.0801 ± 0.0039 | 0.651 ± 0.14
82 | P30E | 0.0621 ± 0.0013 | 0.08594 ± 0.00078 | 0.808 ± 0.075
83 | P30L | 0.0614 ± 0.00078 | 0.0894 ± 0.0031 | 0.901 ± 0.0029
84 | P30M | 0.06322 ± 0.00026 | 0.09162 ± 0.00052 | 0.859 ± 0.079
85 | P30T | 0.06395 ± 0.00026 | 0.0887 | 0.917 ± 0.17
86 | P30D | 0.0658 ± 0.0029 | 0.08338 ± 0.00026 | 0.391 ± 0.088
87 | P30C | 0.0599 ± 0.0023 | 0.0744 ± 0.0026 | 0.608 ± 0.025
88 | P30K | 0.0632 ± 0.0029 | 0.0845 ± 0.0013 | 1.03 ± 0.023
